Publication PMC10755698
Read-outs that look alike come from different tables or passages of the source.

Assays:
Experiment in all cases: native MS
[1] = molecular target: T1, Lassa virus nucleoprotein NP (wild type) (Lassa virus, AV strain, UniProt Q9DQX7)
[2] = molecular target: T1, Lassa virus nucleoprotein NP (wild type); remark: listed apart in the source
[3] = molecular target: T1, Lassa virus nucleoprotein NP (wild type); remark: listed apart in the source

B1: 9 nt RNA (ssRNA)
RNA: UAGGAAUCU
B1: binds [1].

B2: 12 nt RNA (ssRNA)
RNA: ACACAAAGACCC
B2: binds [1].

B3: 18 nt RNA (ssRNA)
RNA: CGGACACACAAAAAGAAA
B3: binds [2].

B4: 25 nt RNA (ssRNA)
RNA: GCCUAGGAUCCACUGUGCGUGUUGU
B4: binds [3].

B5: 27 nt RNA (ssRNA)
RNA: ACCAACACACCAACAACAACCUGUGCG
B5: binds [3].
